Experimental data: paper PMC4626678 (2015)
Positions count from the first letter of the chain named.

T1: trypsin (Bos taurus, UniProt P00760)
T1 chain: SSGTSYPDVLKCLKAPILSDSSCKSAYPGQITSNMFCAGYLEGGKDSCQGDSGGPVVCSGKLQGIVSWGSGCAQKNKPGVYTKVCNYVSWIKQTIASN

B1: HCRG2 (protein)
chain: RGICLEPKVVGPCKARIRRFYYDSETGKCTPFIYGGCGGNGNNFETLHACRGICRA
B2: HCRG1 (protein)
chain: B1 chain with L5S, R16G, I17L, K28E, T30K, G38K, G41K

Tests used:
[1] = target: alpha-chymotrypsin (Bos taurus, UniProt P00766); experiment: SPR
[2] = target: T1, trypsin; experiment: SPR
[3] = target: T1, trypsin; experiment: enzyme inhibition (Dixon, BAPNA)

Binder	Kd [1]	Kd [2]	Ki [3]
B1	1.6 nM	0.68 nM	50 nM
B2	1.8 nM	0.22 nM	28 nM
